# Measurements published in US20230190880A1, “Formulations of Human Parathyroid Hormone (PTH) and Methods for Producing Same” (Sichuan Luzhou Buchang BIO-Pharmaceutical Co., Ltd., priority 2020, published 2023).
# Test: Screening of pH and buffers: stability of liquid huPTH formulations by SEC-, RP- and CEX-HPLC
# Format: physicochemical
# Conditions: accelerated stability at 25° C. and 37° C.; pH 4.0-9.0 buffers, 140 mM NaCl, 1 mg/mL huPTH
# Procedure: Recombinant huPTH (1 mg/mL) having the amino acid sequence set forth in SEQ ID NO: 2 was used as an active ingredient in the formulations. Table 1 provides a summary of the formulations that were tested in this example.
# The results of SEC-HPLC, RP-HPLC and CEX-HPLC performed at 25° C. and 37° C. are depicted in FIGS. 4-6. The results of SEC-HPLC and RP-HPLC performed at 4° C. are depicted in FIGS. 7-8.
structure (smiles),measurement,value
CC[C@H](C)[C@H](NC(=O)[C@H](CCC(=O)O)NC(=O)[C@H](CO)NC(=O)[C@@H](NC(=O)[C@@H](N)CO)C(C)C)C(=O)N[C@@H](CCC(N)=O)C(=O)N[C@@H](CC(C)C)C(=O)N[C@@H](CCSC)C(=O)N[C@@H](Cc1cnc[nH]1)C(=O)N[C@@H](CC(N)=O)C(=O)N[C@@H](CC(C)C)C(=O)NCC(=O)N[C@@H](CCCCN)C(=O)N[C@@H](Cc1cnc[nH]1)C(=O)N[C@@H](CC(C)C)C(=O)N[C@@H](CC(N)=O)C(=O)N[C@@H](CO)C(=O)N[C@@H](CCSC)C(=O)N[C@@H](CCC(=O)O)C(=O)N[C@@H](CCCN=C(N)N)C(=O)N[C@H](C(=O)N[C@@H](CCC(=O)O)C(=O)N[C@@H](Cc1c[nH]c2ccccc12)C(=O)N[C@@H](CC(C)C)C(=O)N[C@@H](CCCN=C(N)N)C(=O)N[C@@H](CCCCN)C(=O)N[C@@H](CCCCN)C(=O)N[C@@H](CC(C)C)C(=O)N[C@@H](CCC(N)=O)C(=O)N[C@@H](CC(=O)O)C(=O)N[C@H](C(=O)N[C@@H](Cc1cnc[nH]1)C(=O)N[C@@H](CC(N)=O)C(=O)N[C@@H](Cc1ccccc1)C(=O)O)C(C)C)C(C)C [huPTH],stability profile as a function of pH,best stability profile at pH 5
